Laboratory results published in PMC9303359.

Molecular target: human Toll-like receptor 2 expressed on HEK-Blue hTLR2 cells (human) (UniProt O60603)
Assay: flow cytometry on cells

Chain of UniProt O60603 (O60603 21-784): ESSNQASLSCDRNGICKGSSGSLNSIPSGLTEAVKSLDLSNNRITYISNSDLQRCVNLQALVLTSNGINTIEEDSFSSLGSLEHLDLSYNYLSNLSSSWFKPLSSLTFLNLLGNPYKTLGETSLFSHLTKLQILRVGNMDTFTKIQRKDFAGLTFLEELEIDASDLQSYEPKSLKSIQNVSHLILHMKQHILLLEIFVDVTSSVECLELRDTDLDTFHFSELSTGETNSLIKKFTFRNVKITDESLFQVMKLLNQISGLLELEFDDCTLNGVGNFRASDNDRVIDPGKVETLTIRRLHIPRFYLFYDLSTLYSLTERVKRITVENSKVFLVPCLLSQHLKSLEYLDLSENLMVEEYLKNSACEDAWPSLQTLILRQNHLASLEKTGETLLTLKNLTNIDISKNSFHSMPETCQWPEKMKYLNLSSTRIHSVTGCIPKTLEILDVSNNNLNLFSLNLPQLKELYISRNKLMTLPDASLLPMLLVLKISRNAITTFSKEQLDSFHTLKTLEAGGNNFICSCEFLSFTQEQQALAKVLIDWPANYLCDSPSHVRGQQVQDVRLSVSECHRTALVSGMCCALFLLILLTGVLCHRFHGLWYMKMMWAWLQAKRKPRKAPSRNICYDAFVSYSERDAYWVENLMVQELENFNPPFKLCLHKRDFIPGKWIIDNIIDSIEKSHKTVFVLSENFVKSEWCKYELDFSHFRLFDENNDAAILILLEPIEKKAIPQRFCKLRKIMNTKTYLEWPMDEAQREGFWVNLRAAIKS

fluorescently labelled recombinant ancillary pilin 1 (rAP1 labelled with Red Mega 485) (natural protein)
mean fluorescence intensity: 1490
